In patent US20190367620A1 (Merck KGaA, published 2019):
Changes are numbered by the printed parent chain.

Experiments:
Experiment in all cases: SPR; free energy change relative to wild-type D2
Human FGFR1 D2-His6 = target: T1, Human FGFR1 D2-His6 (human, UniProt P11362 22-254)
T1 construct: also called D2 domain; F3FR1c-D2
T1 sequence: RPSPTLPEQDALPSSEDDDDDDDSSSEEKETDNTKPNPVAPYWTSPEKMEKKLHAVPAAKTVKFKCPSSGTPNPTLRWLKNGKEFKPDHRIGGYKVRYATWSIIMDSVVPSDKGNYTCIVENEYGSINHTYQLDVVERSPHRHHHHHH
Method: (§1) Binding affinities of anti-FGFR1 antibodies to FGFR1 were measured by Surface Plasmon Resonance (SPR) using a GE Healthcare BIAcore 4000 instrument as follows. Goat anti-human Fc antibody (Jackson ImmunoResearch Laboratories #109-005-098) was first immobilized on BIAcore carboxymethylated dextran CM5 chip using direct coupling to free amino groups following the procedure described by the manufacturer. Antibodies were then captured on the CM5 biosensor chip to achieve approximately 200 response units (RU). Binding measurements were performed using the running HBS-EP+ buffer. A 2-fold dilution series of His-tagged FGFR1 proteins were injected at a flow rate of 30 μl/min at 25° C. Association rates (kₒₙ, per mol/s) and dissociation rates (koff, per s) were calculated using a simple 1:1 Langmuir binding model (Biacore 4000 Evaluation Software). The equilibrium dissociation constant (KD, mol) was calculated as the ratio of koff/kₒₙ.
(§2) To obtain a finer, residue-level mapping of the epitope and to complement the HD exchange data, molecular modelling and manual inspection of the crystal structure of FGFR1 [(Beenken et al. 2012); PDB record 3OJV] was used to select solvent exposed residues within and around the epitope identified by HD exchange. The selected residues were mutated either to alanine (large to small) or to glycine if the selected residue was alanine. In total 35 point mutants were designed, expressed and purified in HEK cells, and tested for binding to mAb #A08 using surface plasmon resonance as described in Example 1.8. The affinity of the antibody for wild-type and each mutant was determined and used to calculate the contribution of each epitope residue to the binding energy.
(§3) Variant were compared to wild-type D2. The change in the Gibbs free energy of binding of mutant relative to the wild-type D2 construct (ΔΔGₘᵤₜ) was derived from the ratio of the wild-type and mutant KD.

[1] = target: T2, FGFR1 D2 point mutant E47A (human, UniProt P11362 22-254)
T2 chain: T1 sequence with E47A
Method: as §1, §2, §3

[2] = target: T3, FGFR1 D2 point mutant K48A (human, UniProt P11362 22-254)
T3 chain: T1 sequence with K48A
Method: as §1, §2, §3

[3] = target: T4, FGFR1 D2 point mutant L53A (human, UniProt P11362 22-254)
T4 chain: T1 sequence with L53A
Method: as §1, §2, §3

[4] = target: T5, FGFR1 D2 point mutant A55G (human, UniProt P11362 22-254)
T5 chain: T1 sequence with A55G
Method: as §1, §2, §3

[5] = target: T6, FGFR1 D2 point mutant P57A (human, UniProt P11362 22-254)
T6 chain: T1 sequence with P57A
Method: as §1, §2, §3

[6] = target: T7, FGFR1 D2 point mutant K86A (human, UniProt P11362 22-254)
T7 chain: T1 sequence with K86A
Method: as §1, §2, §3

[7] = target: T8, FGFR1 D2 point mutant I91A (human, UniProt P11362 22-254)
T8 chain: T1 sequence with I91A
Method: as §1, §2, §3

[8] = target: T9, FGFR1 D2 point mutant A99G (human, UniProt P11362 22-254)
T9 chain: T1 sequence with A99G
Method: as §1, §2, §3

[9] = target: T10, FGFR1 D2 point mutant S107A (human, UniProt P11362 22-254)
T10 chain: T1 sequence with S107A
Method: as §1, §2, §3

- ΔΔGmut (Human FGFR1 D2-His6): 0 kcal/mol
- ΔΔGmut [1]: 0.17 kcal/mol
- ΔΔGmut [2]: -0.46 kcal/mol
- ΔΔGmut [3]: 0.25 kcal/mol
- ΔΔGmut [4]: 0.07 kcal/mol
- ΔΔGmut [5]: 0.44 kcal/mol
- ΔΔGmut [6]: -0.06 kcal/mol
- ΔΔGmut [7]: 0 kcal/mol
- ΔΔGmut [8]: -0.05 kcal/mol
- ΔΔGmut [9]: 0.13 kcal/mol
B1: mAb #A08 (antibody, V domains shown)
VH: EVQLQESGPGLVKPSGTLSLTCAVSGGSISSNNWWSWVRQPPGKGLEWIGEIYHSGSTSYNPSLKSRVTISVDKSKNQFSLKLNSVTAADTAVYYCARGTDWFDPWGQGTLVTVSS
VL: QAVLTQPPSVSVAPGQTARITCGGNNIGSESVHWYQQKPGQAPVLVVYDDSDRPSGIPERFSGSNSGNTATLTISRVEAGDEADYYCQVWDSTSDHRVFGGGTKLTVL
notes: Only variable domains are tied to the name mAb #A08 (hit); also called #A08 hit; mAb #08
